Each block holds one binder with its values, some of them ahead of it.
B5: Recombinant His-tag PGRN protein (full length progranulin) (ligand)
chain: TRCPDGQFCPVACCLDPGGASYSCCRPLLDKWPTTLSRHLGGPCQVDAHCSAGHSCIFTVSGTSSCCPFPEAVACGDGHHCCPRGFHCSADGRSCFQRSGNNSVGAIQCPDSQFECPDFSTCCVMVDGSWGCCPMPQASCCEDRVHCCPHGAFCDLVHTRCITPTGTHPLAKKLPAQRTNRAVALSSSVMCPDARSRCPDGSTCCELPSGKYGCCPMPNATCCSDHLHCCPQDTVCDLIQSKCLSKENATTDLLTKLPAHTVGDVKCDMEVSCPDGYTCCRLQSGAWGCCPFTQAVCCEDHIHCCPAGFTCDTQKGTCEQGPHQVPWMEKAPAHLSLPDPQALKRDVPCDNVSSCPSSDTCCQLTSGEWGCCPIPEAVCCSDHQHCCPQGYTCVAEGQCQRGSEIVAGLEKMPARRASLSHPRDIGCDQHTSCPVGQTCCPSLGGSWACCQLPHAVCCEDRQHCCPAGYTCNVKARSCEKEVVSAQPATFLARSPHVGVKDVECGEGHFCHDNQTCCRDNRQGWACCPYRQGVCCADRRHCCPAGFRCAARGTKCLRREAPRWDAPLRDPALRQLL
notes: also called rPGRN; His-tagged PGRN; not shown: His tag
B6: Recombinant GBA (glucocerebrosidase; R&D Systems Cat. No. 7410-GH-010) (enzyme, UniProt P04062 40-536, looked up)
chain: ARPCIPKSFGYSSVVCVCNATYCDSFDPPTFPALGTFSRYESTRSGRRMELSMGPIQANHTGTGLLLTLQPEQKFQKVKGFGGAMTDAAALNILALSPPAQNLLLKSYFSEEGIGYNIIRVPMASCDFSIRTYTYADTPDDFQLHNFSLPEEDTKLKIPLIHRALQLAQRPVSLLASPWTSPTWLKTNGAVNGKGSLKGQPGDIYHQTWARYFVKFLDAYAEHKLQFWAVTAENEPSAGLLSGYPFQCLGFTPEHQRDFIARDLGPTLANSTHHNVRLLMLDDQRLLLPHWAKVVLTDPEAAKYVHGIAVHWYLDFLAPAKATLGETHRLFPNTMLFASEACVGSKFWEQSVRLGSWDRGMQYSHSIITNLLYHVVGWTDWNLALNPEGGPNWVRNFVDSPIIVDITKDTFYKQPMFYHLGHFSKFIPEGSQRVGLVASQKNDLDAVALMHPDGSAVVVVLNRSSKDVPLTIKDPAVGFLETISPGYSIHTYLWRRQ
modifications: biotin-labeled (EZ-Link Sulfo-NHS-LC-Biotin) in the solid phase binding assays; unlabeled in SPR
notes: also called GCase; biotin-labeled GBA

Legend:
[1] = target: B6; assay: solid phase binding, Pcgin coated, biotin-labeled GCase, ELISA-based detection
Protocol: (§1) Pcgin was coated on a 96-well plate and incubated with biotin-labeled GCase, HSP70, and Sortilin (serving as a positive control) respectively. The direct binding was detected by ELISA-based method.
(§2) Pcgin was then expressed in bacteria and purified as a His-tagged protein. The purity was examined by Coomassie Blue staining and confirmed by Western blotting with His probe (FIG. 10). […] Although Pcgin retained GCase and HSP70 binding activity of PGRN, it lacked PGRN's oncogenic activity, including PGRN-activated oncogenic signaling and cell proliferation (data not shown).

[2] = target: T1, Recombinant sortilin (R&D Systems Cat. No. 3154-ST-050) (UniProt Q99523 78-755, biotin-labeled in the solid phase binding assay of FIG. 11; unlabeled in SPR); assay: solid phase binding, Pcgin coated, biotin-labeled sortilin (positive control), ELISA-based detection
T1 construct: also called biotin-labeled Sortilin
T1 sequence (looked up): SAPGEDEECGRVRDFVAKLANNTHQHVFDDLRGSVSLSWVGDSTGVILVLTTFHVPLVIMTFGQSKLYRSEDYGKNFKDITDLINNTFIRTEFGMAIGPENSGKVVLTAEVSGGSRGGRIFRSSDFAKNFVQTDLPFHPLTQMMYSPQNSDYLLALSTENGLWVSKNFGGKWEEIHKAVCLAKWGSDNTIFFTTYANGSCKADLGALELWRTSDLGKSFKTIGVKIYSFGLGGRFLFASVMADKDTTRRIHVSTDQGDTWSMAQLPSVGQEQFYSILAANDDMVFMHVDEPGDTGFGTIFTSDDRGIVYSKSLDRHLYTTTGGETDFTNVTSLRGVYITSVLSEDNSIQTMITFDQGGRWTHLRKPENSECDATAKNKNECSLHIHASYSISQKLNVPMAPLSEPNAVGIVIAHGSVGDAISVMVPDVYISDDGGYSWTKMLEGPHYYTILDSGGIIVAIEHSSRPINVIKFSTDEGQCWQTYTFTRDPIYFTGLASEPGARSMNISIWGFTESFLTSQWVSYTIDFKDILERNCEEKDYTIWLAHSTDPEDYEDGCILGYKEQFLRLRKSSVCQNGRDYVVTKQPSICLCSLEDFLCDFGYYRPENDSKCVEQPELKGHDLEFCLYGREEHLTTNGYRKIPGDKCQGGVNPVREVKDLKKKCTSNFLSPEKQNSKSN
Protocol: as §1, §2

[3] = target: HSP70 expressed from a plasmid in transfected 293T cells (UniProt P0DMV8 1-641); assay: co-IP from co-transfected 293T cells: IP anti-GFP, IB anti-HSP70
Chain of HSP70 expressed from a plasmid in transfected 293T cells (P0DMV8 whole entry, the tested form may be a part): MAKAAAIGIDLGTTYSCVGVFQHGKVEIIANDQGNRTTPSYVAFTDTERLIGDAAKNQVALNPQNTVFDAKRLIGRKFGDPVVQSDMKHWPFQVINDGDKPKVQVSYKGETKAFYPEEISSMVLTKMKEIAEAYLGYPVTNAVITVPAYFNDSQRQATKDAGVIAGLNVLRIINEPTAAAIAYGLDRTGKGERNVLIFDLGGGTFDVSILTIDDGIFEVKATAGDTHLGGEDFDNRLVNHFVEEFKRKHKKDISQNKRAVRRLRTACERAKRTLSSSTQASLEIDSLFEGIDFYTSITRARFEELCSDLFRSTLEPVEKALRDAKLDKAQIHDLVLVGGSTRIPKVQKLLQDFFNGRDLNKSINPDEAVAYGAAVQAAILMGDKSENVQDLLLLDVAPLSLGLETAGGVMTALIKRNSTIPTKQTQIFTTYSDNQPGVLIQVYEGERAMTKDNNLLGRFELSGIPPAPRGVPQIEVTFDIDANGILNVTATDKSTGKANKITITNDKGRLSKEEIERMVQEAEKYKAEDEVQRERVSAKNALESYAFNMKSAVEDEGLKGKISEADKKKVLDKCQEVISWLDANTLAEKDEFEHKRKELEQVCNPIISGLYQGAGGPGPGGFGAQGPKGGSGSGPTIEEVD
Description: (§3) FIG. 8 depicts that Pcgin/ND7 fragment of PGRN has binding motifs for GCase and HSP70. (A) Scheme of Pcgin amino acid structure and its deletion mutants. (B) Co-IP assays for examining the binding of Pcgin and its mutants to GCase and HSP70. 293T cells were transfected with plasmids encoding either GFP fused Pcgin or its mutants, together with plasmids encoding RFP fused GCase and HSP70, and the protein complexes were immunoprecipitated with GFP antibody and probed with RFP or HSP70 antibodies respectively. […] The result is representative of three independent experiments. (C) Structure and sequence of Pcgin/ND7 fragment of PGRN. […] Sequence of Pcgin (SEQ ID NO:4) is shown in the bottom panel. Linker regions and Gm E are highlighted in green and red, respectively. Binding sites of GCase, HSP70, and Sortilin are indicated.

[4] = target: B5; assay: solid phase binding, PGRN coated, biotin-labeled LIMP2
Protocol: Solid phase binding: 0.1, 1, 2, and 5 μg/ml PGRN proteins were coated in 96-wells with triplicate wells in PBS for overnight. The plate was washed with 0.1% tween/PBS five times and then blocked with 2% BSA/PBS solution. Two μg BSA, LIMP2 and GBA protein were labeled with biotin followed the protocol of EZ-Link Sulfo-NHS-LC-Biotin and Biotinylation Kits (Thermo Scientific). Biotin-labeled LIMP2, GBA or BSA were added in the plate and incubate for 2 hours. Wash with 0.1% tween/PBS, and coated with streptavidin-HRP (1:2000 dilution) solution for 1 hour. After washing add t h e substrate and stop the reaction with […] H₂SO₄. Read result at UV 450 nm in plate reader.

[5] = target: T2, RFP-fused GBA (encoded by pDsRed-GBA) (UniProt P04062 40-536); assay: co-IP from co-transfected 293T cells: IP anti-GFP, IB anti-RFP
T2 construct: also called RFP fused GCase; GCase; not shown: RFP (DsRed) tag
T2 sequence (looked up): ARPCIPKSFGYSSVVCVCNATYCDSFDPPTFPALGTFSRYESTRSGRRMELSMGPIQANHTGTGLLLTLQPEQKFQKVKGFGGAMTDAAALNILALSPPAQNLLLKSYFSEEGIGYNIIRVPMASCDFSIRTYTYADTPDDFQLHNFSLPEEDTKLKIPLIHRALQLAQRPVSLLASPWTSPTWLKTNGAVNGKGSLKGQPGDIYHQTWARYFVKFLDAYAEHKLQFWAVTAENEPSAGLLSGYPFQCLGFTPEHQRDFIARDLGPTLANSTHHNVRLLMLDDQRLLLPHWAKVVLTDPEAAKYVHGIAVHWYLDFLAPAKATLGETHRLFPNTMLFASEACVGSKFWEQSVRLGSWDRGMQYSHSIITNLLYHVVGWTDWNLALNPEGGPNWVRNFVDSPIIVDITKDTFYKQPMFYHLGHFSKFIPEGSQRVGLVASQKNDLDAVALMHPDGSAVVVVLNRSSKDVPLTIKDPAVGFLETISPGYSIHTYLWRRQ
Description: as §3

[6] = target: T1, Recombinant sortilin (R&D Systems Cat. …); assay: SPR, SensiQ Pioneer, sortilin immobilised, PGRN injected (OneStep)
[7] = target: B5; assay: SPR, SensiQ Pioneer, GBA immobilised, PGRN injected (OneStep)
Protocol: Surface Plasmon Resonance (SPR): All SPR experiments were done by SensiQ Technologies Inc. (Oklahoma City, Okla.) by using SensiQ Pioneer at a controlled analysis temperature of 25° C., and samples in the instrument sample racks were maintained at 18° C. The running buffer throughout the immobilization and the assay consisted of 10 mM HEPES, 150 mM NaCl, 0.005% Tween 20. Buffer pH was adjusted to pH 7.4, 6.5, 6.0 or 5.5 for individual runs, and for each pH the running buffer was used to prepare PGRN samples and sucrose diffusion standards.
The assay of PGRN was performed with a total of five buffer blank injections and two replicates of 200 nM PGRN, all of which were given a 1 hour dissociation time. The OneStep™ injection was used for this assay to determine kinetic rate constants and the equilibrium dissociation constant from a single gradient inject. Two injections of 3% sucrose in running buffer were performed to serve as a diffusion standard.
Data was analyzed using the QDat Analysis Software (SensiQ Technologies and BioLogic Software). All data were double referenced to a reference channel (channel 2) and buffer blanks. The average signal of the buffer blanks was used to subtract injection artifacts. Referenced SPR data from the analysis channels were model fit to ascertain ka, kd, and KD for the interactions.

B1: Recombinant Pcgin, His-tagged, expressed in bacteria (other)
chain: EKEVVSAQPATFLARSPHVGVKDVECGEGHFCHDNQTCCRDNRQGWACCPYRQGVCCADRRHCCPAGFRCAARGTKCLRREAPRWDAPLRDPALRQLL
notes: also called ND7; PGRN ND7 fragment; not shown: His tag
binding result [1]: binds
binding result [2]: binds

Binder: B5
Kd [6]: 3.67 nM

Binder: B6
Kd [7]: 0.71 nM

Next, values leading:

binding result [3]: no binding
B2: GFP fused Pcgin/ND7 deletion mutant lacking aa535-539 (RDNRQ) (other)
chain: EKEVVSAQPATFLARSPHVGVKDVECGEGHFCHDNQTCCGWACCPYRQGVCCADRRHCCPAGFRCAARGTKCLRREAPRWDAPLRDPALRQLL
notes: also called ΔRDNRQ; ΔDNRQ; not shown: GFP tag

binding result [4]: no binding
B3: Recombinant LIMP2 (lysosomal integral membrane protein 2; R&D Systems Cat. No. 1966-LM-050) (receptor, UniProt Q14108 27-432, looked up)
chain: RVFQKAVDQSIEKKIVLRNGTEAFDSWEKPPLPVYTQFYFFNVTNPEEILRGETPRVEEVGPYTYRELRNKANIQFGDNGTTISAVSNKAYVFERDQSVGDPKIDLIRTLNIPVLTVIEWSQVHFLREIIEAMLKAYQQKLFVTHTVDELLWGYKDEILSLIHVFRPDISPYFGLFYEKNGTNDGDYVFLTGEDSYLNFTKIVEWNGKTSLDWWITDKCNMINGTDGDSFHPLITKDEVLYVFPSDFCRSVYITFSDYESVQGLPAFRYKVPAEILANTSDNAGFCIPEGNCLGSGVLNVSICKNGAPIIMSFPHFYQADERFVSAIEGMHPNQEDHETFVDINPLTGIILKAAKRFQINIYVKKLDDFVETGDIRTMVFPVMYLNESVHIDKETASRLKSMINTT
modifications: biotin-labeled (EZ-Link Sulfo-NHS-LC-Biotin)
notes: also called biotin-labeled LIMP2

binding result [5]: no binding
B4: GFP fused Pcgin/ND7 deletion mutant lacking aa523-534 (other)
chain: EKEVVSAQPATFLARSPHVGVKDVECGRDNRQGWACCPYRQGVCCADRRHCCPAGFRCAARGTKCLRREAPRWDAPLRDPALRQLL
notes: not shown: GFP tag
